The source of these data is patent US20130171184A1 (MACK TRUCKS, published 2013).

First the molecules themselves.
B1: biotinylated vitronectin peptide VA-26 (amino acids 43-68) (peptide)
peptide: Biotin-VTRGDVFTMPEDEYTVYDDGEEKNNA
notes: Synthetic peptide of human vitronectin V43-A68
B2: Neisseria meningitidis Opc of strain H44/76, expressed on meningococci (other)
chain: AQELQTANEFTVHTDLSSISSTRAFLKEKHKAAKHISVRADIPFDANQGIRLEAGFGRSKKNIINLETDENKLGKTKNVKLPTGVPENRIDLYTGYTYTQTLSDSLNFRVGAGLGFESSKDSIKTTKHTLHSSRQSWLAKVHADLLSQLGNGWYINPWSEVKFDLNSRYKLNTGVTNLKKDINQKTNGWGFGLGANIGKKLGESASIEAGPFYKQRTYKESGEFSVTTKSGDVSLTIPKTSIREYGLRVGIKF
notes: also called Opc-expressing Nm; (GB) Opc+Δµ
B3: control peptide GS-22 (peptide)
peptide: Biotin-GSNENQKTVKAESVPNMSFDQS
B4: rabbit vitronectin (other)
chain: DQESCKDRCTEGFNANRKCQCDELCSYYQSCCADYAAECKPQVTRGDVFTMPEDEYGPYDYIEQTKDNASVHAQPESPTVGQEPTLSPDLQTEGGAEPTHEVPLEPEMETLRPEGEDLQAGTTELGTSASPAEEELCSGKPFDAFTDLKNGSLFAFRGQYCYELDETAVRPGYPKLIQDVWGIEGPIDAAFTRINCQGKTYLFKGSQYWRFEDGILDPDYPRNISEGFSGIPDNVDAAFALPAHSYSGRERVYFFKGDKYWEYQFQQQPSQEECEGSSLSAVFEHFAMLHRDSWEDIFKLLFWGRPSGGARQPQFISRDWHGVPGKVDAAMAGRIYISGLTPSPSAKKQKSRRRSRKRYRSRYGRGRSQNSRRLSRSISRLWFSSEEVSLGPYNYEDYETSWLKPATSEPIQSVYFFSGDKYYRVNLRTQRVDTVNPPYPRSIAQYWLGCPAPGGQ
notes: also called rabbit Vn
B5: mouse vitronectin (other)
chain: DQESCKGRCTQGFMASKKCQCDELCTYYQSCCADYMEQCKPQVTRGDVFTMPEDDYWSYDYVEEPKNNTNTGVQPENTSPPGDLNPRTDGTLKPTAFLDPEEQPSTPAPKVEQQEEILRPDTTDQGTPEFPEEELCSGKPFDAFTDLKNGSLFAFRGQYCYELDETAVRPGYPKLIQDVWGIEGPIDAAFTRINCQGKTYLFKGSQYWRFEDGVLDPGYPRNISEGFSGIPDNVDAAFALPAHRYSGRERVYFFKGKQYWEYEFQQQPSQEECEGSSLSAVFEHFALLQRDSWENIFELLFWGRSSDGAREPQFISRNWHGVPGKVDAAMAGRIYVTGSLSHSAQAKKQKSKRRSRKRYRSRRGRGHRRSQSSNSRRSSRSIWFSLFSSEESGLGTYNNYDYDMDWLVPATCEPIQSVYFFSGDKYYRVNLRTRRVDSVNPPYPRSIAQYWLGCPTSEK
notes: also called mouse Vn
B6: Neisseria meningitidis Hsf (Msf) of strain H44/76, expressed on meningococci (other)
chain: NNEEQEEDLYLDPVQRTVAVLIVNSDKEGTGEKEKVEENSDWAVYFNEKGVLTAREITLKAGDNLKIKQNGTNFTYSLKKDLTDLTSVGTEKLSFSANGNKVNITSDTKGLNFAKETAGTNGDTTVHLNGIGSTLTDTLLNTGATTNVTNDNVTDDEKKRAASVKDVLNAGWNIKGVKPGTTASDNVDFVRTYDTVEFLSADTKTTTVNVESKDNGKKTEVKIGAKTSVIKEKDGKLVTGKDKGENGSSTDEGEGLVTAKEVIDAVNKAGWRMKTTTANGQTGQADKFETVTSGTNVTFASGKGTTATVSKDDQGNITVMYDVNVGDALNVNQLQNSGWNLDSKAVAGSSGKVISGNVSPSKGKMDETVNINAGNNIEITRNGKNIDIATSMTPQFSSVSLGAGADAPTLSVDGDALNVGSKKDNKPVRITNVAPGVKEGDVTNVAQLKGVAQNLNNRIDNVDGNARAGIAQAIATAGLVQAYLPGKSMMAIGGGTYRGEAGYAIGYSSISDGGNWIIKGTASGNSRGHFGASASVGYQW
notes: Opc-deficient variants or mutants isolate the Msf effect; also called NhhA; NMB0992
B7: biotinylated vitronectin peptide AR-36 (Vn residues A360-R395, heparin-binding region) (peptide)
peptide: Biotin-APRPSLAKKQRFRHRNRKGYRSQRGHSRGRNQNSRR
notes: Synthetic peptide immobilised on extravidin coated plates; also called HBD peptide

Assay [1] concerns the target B6. Description: ELISA, bacteria on immobilised biotinylated peptide.
Assay [2] has as its target T1, native human vitronectin preparation (nVn) (human, UniProt P04004 20-478).
T1 construct: Same protein as m4 in the native, closed conformation; also called native Vn
Description: binding of bacteria to nVn against aVn as reference.

The target in assay [3] is B3. Description: ELISA with immobilised peptides.
Assay [4] deals with control peptide SY-30 (N-terminal biotin). Description: ELISA with immobilised peptides.
The target of assay [5] is B6. In words: ELISA with immobilised peptides.
In assay [6] the target is B6. Description: ELISA, bacteria on immobilised heparin-affinity purified vitronectin.
Assay [7] deals with B6. Description: ELISA, bacteria on immobilised vitronectin. (An ELISA detects its analyte on a solid surface through an enzyme-linked reagent.)
Assay [8] addresses human fibronectin (from serum) (human, UniProt P02751 32-2296). In words: bacteria incubated in decomplemented serum, dot blot with specific antibodies.
Assay [9] addresses B6. Description: ELISA, bacteria on peptide immobilised on extravidin coated plates.

Where no end group is shown, it is not given here. The star is where a group is joined. Biotin = O=C1N[C@H]2[C@H](CS[C@H]2CCCCC(=O)*)N1

T1 sequence (P04004 20-478 limits assumed): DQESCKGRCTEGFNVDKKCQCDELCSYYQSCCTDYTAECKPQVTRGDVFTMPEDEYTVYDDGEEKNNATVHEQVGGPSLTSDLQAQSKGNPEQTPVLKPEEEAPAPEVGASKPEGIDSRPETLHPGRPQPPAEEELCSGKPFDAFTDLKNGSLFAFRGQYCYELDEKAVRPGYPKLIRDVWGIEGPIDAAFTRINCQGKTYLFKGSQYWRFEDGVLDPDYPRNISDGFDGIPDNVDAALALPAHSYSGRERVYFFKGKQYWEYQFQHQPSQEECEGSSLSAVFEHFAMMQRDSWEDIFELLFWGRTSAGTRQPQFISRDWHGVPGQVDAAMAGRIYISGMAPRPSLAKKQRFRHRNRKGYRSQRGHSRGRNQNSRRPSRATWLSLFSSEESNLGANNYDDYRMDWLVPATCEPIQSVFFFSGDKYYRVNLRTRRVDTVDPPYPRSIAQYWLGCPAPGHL
Chain of human fibronectin (from serum) (P02751 other isoform, or with tags, fused parts or gaps limits assumed): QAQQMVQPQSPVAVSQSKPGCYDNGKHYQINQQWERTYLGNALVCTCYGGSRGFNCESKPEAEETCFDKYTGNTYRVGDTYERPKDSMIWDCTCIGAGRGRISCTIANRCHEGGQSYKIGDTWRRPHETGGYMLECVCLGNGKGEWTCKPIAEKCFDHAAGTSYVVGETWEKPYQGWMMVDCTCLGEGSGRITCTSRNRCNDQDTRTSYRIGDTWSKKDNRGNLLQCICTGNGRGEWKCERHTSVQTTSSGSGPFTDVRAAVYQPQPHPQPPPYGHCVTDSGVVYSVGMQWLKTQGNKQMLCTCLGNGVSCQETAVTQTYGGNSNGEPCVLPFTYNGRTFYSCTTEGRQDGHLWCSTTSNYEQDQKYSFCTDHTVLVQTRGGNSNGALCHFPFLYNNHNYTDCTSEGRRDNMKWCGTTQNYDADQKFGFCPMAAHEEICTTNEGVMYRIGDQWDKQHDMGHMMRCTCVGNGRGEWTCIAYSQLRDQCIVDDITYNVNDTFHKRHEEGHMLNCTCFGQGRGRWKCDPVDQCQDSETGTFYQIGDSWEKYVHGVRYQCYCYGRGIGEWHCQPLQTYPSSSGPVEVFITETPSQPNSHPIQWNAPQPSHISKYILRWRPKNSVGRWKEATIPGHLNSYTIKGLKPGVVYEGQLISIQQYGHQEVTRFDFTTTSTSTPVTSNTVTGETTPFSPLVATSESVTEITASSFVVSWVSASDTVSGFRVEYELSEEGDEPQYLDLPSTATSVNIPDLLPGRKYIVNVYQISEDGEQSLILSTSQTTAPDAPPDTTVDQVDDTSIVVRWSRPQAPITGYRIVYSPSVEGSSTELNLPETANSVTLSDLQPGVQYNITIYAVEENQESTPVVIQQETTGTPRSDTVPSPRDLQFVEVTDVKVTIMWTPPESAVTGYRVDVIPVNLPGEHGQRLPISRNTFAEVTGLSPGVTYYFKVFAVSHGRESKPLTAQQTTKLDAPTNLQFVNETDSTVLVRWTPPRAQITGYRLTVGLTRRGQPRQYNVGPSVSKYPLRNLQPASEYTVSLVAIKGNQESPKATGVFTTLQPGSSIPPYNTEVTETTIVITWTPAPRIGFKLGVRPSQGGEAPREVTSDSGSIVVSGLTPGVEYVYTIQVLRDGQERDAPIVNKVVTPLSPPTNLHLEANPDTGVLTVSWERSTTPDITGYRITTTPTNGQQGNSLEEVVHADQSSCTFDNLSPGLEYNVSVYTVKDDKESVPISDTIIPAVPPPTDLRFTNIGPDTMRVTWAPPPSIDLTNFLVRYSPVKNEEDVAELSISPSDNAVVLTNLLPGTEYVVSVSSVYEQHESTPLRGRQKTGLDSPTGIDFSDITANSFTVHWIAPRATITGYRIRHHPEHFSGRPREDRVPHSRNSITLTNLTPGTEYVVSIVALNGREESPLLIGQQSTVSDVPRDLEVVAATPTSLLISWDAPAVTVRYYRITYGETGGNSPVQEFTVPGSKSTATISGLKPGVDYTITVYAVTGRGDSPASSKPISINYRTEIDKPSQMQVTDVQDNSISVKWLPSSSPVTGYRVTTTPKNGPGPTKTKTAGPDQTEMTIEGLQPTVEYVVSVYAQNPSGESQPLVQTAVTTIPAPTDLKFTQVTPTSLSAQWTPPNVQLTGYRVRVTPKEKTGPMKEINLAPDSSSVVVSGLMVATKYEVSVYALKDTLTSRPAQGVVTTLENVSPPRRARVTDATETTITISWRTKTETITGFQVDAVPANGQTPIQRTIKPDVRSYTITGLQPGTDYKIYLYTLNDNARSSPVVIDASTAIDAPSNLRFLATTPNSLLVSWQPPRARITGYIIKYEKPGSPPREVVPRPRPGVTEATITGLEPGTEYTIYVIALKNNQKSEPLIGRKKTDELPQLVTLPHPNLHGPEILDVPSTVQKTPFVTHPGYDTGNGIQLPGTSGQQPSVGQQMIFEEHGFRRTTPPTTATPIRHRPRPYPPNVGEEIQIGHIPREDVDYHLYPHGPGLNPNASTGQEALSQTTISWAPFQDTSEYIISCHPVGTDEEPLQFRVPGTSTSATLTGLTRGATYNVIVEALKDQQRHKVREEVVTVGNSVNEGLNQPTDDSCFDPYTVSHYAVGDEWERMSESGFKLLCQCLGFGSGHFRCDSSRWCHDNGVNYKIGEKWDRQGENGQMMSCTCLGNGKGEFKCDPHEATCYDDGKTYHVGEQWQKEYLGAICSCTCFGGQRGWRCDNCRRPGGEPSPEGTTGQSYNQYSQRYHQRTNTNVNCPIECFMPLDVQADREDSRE

With B1, the binding result in assay [1] is recorded as “binds”.
On to B2, for which, in [2], the “binding relative to the fully activated preparation of Vn” value was around 30%. For the same molecule, the binding result in assay [3] and in [4] was “no binding” in each case.
For the molecule B3, in [5], the binding result is “no binding”.
Take B4: the binding result in [6] was “binds”.
In the case of B5, the binding result in assay [7] is on record as “binds”.
B6: in [2], the “binding relative to the fully activated preparation of Vn” value was around 30%. For the same molecule, in assay [8], the binding result is recorded as “no binding (tested: 10% pooled human serum)”.
Consider B7, for which, in assay [9], the binding result is reported as “binds”.
